According to patent US20150232507A1:

Columns and labels:
Assay in all cases: cell-based or functional assay
[1] = target: C-terminal domain of G1 cloned directly to Trx whose first amino acid is Lys (E. coli)
[2] = target: C-terminal domain of G1 cloned directly to Trx whose first amino acid is Pro (E. coli)
[3] = target: C-terminal domain of G1 cloned directly to Trx whose first amino acid is Trp (E. coli)
[4] = target: C-terminal domain of G1 cloned directly to Trx whose first amino acid is Thr (E. coli)
[5] = target: C-terminal domain of G1 cloned directly to Trx whose first amino acid is Val (E. coli)
[6] = target: C-terminal domain of G1 cloned directly to Trx whose first amino acid is Ala (E. coli)
[7] = target: C-terminal domain of G1 cloned directly to Trx whose first amino acid is Gly (E. coli)
[8] = target: C-terminal domain of G1 cloned directly to Trx whose first amino acid is Leu (E. coli)
[9] = target: C-terminal domain of G1 cloned directly to Trx whose first amino acid is Ser (E. coli)
[10] = target: C-terminal domain of G1 cloned directly to Trx whose first amino acid is Tyr (E. coli)
[11] = target: C-terminal domain of G1 cloned directly to Trx whose first amino acid is Phe (E. coli)
[12] = target: C-terminal domain of G1 cloned directly to Trx whose first amino acid is Arg (E. coli)
[13] = target: C-terminal domain of G1 cloned directly to Trx whose first amino acid is Asn (E. coli)
[14] = target: C-terminal domain of G1 cloned directly to Trx whose first amino acid is Gln (E. coli)
[15] = target: C-terminal domain of G1 cloned directly to Trx whose first amino acid is Glu (E. coli)
[16] = target: C-terminal domain of G1 cloned directly to Trx whose first amino acid is His (E. coli)
[17] = target: C-terminal domain of G1 cloned directly to Trx whose first amino acid is Cys (E. coli)
[18] = target: C-terminal domain of G1 cloned directly to Trx whose first amino acid is Ile (E. coli)
[19] = target: C-terminal domain of G1 cloned directly to Trx whose first amino acid is Met (E. coli)
[20] = target: C-terminal domain of G1 cloned directly to Trx whose first amino acid is Asp (E. coli)

C-terminal Cleavage Yield (%) [1]: 86.7%
C-terminal Cleavage k [1]: 0.00051 s⁻¹
C-terminal Cleavage t(½) [1]: 22.6 min
C-terminal Cleavage Yield (%) [2]: 57.8%
C-terminal Cleavage k [2]: 6e-05 s⁻¹
C-terminal Cleavage t(½) [2]: 193 min
C-terminal Cleavage Yield (%) [3]: 94.1%
C-terminal Cleavage k [3]: 0.00028 s⁻¹
C-terminal Cleavage t(½) [3]: 41.3 min
C-terminal Cleavage Yield (%) [4]: 87.5%
C-terminal Cleavage k [4]: 0.000573 s⁻¹
C-terminal Cleavage t(½) [4]: 20.1 min
C-terminal Cleavage Yield (%) [5]: 86.7%
C-terminal Cleavage k [5]: 0.000273 s⁻¹
C-terminal Cleavage t(½) [5]: 42.3 min
C-terminal Cleavage Yield (%) [6]: 75.8%
C-terminal Cleavage k [6]: 0.000357 s⁻¹
C-terminal Cleavage t(½) [6]: 32.4 min
C-terminal Cleavage Yield (%) [7]: 75.2%
C-terminal Cleavage k [7]: 0.000137 s⁻¹
C-terminal Cleavage t(½) [7]: 84.5 min
C-terminal Cleavage Yield (%) [8]: 69.3%
C-terminal Cleavage k [8]: 0.000273 s⁻¹
C-terminal Cleavage t(½) [8]: 42.3 min
C-terminal Cleavage Yield (%) [9]: 89.4%
C-terminal Cleavage k [9]: 0.000483 s⁻¹
C-terminal Cleavage t(½) [9]: 23.9 min
C-terminal Cleavage Yield (%) [10]: 91.3%
C-terminal Cleavage k [10]: 0.00033 s⁻¹
C-terminal Cleavage t(½) [10]: 35 min
C-terminal Cleavage Yield (%) [11]: 72.6%
C-terminal Cleavage k [11]: 0.000307 s⁻¹
C-terminal Cleavage t(½) [11]: 37.7 min
C-terminal Cleavage Yield (%) [12]: 87.3%
C-terminal Cleavage k [12]: 0.00051 s⁻¹
C-terminal Cleavage t(½) [12]: 22.6 min
C-terminal Cleavage Yield (%) [13]: 71.2%
C-terminal Cleavage k [13]: 0.000287 s⁻¹
C-terminal Cleavage t(½) [13]: 40.3 min
C-terminal Cleavage Yield (%) [14]: 88.8%
C-terminal Cleavage k [14]: 0.00047 s⁻¹
C-terminal Cleavage t(½) [14]: 24.6 min
C-terminal Cleavage Yield (%) [15]: 86.2%
C-terminal Cleavage k [15]: 0.000127 s⁻¹
C-terminal Cleavage t(½) [15]: 91.2 min
C-terminal Cleavage Yield (%) [16]: 71.1%
C-terminal Cleavage k [16]: 0.000447 s⁻¹
C-terminal Cleavage t(½) [16]: 25.9 min
C-terminal Cleavage Yield (%) [17]: 83.6%
C-terminal Cleavage k [17]: 0.000683 s⁻¹
C-terminal Cleavage t(½) [17]: 16.9 min
C-terminal Cleavage Yield (%) [18]: 88.4%
C-terminal Cleavage k [18]: 0.000173 s⁻¹
C-terminal Cleavage t(½) [18]: 66.7 min
C-terminal Cleavage Yield (%) [19]: 85.6%
C-terminal Cleavage k [19]: 0.00087 s⁻¹
C-terminal Cleavage t(½) [19]: 13.3 min
C-terminal Cleavage Yield (%) [20]: 68.6%
C-terminal Cleavage k [20]: 0.000247 s⁻¹
C-terminal Cleavage t(½) [20]: 46.8 min
B1: G1^N(C1A): StreptagII-gpD-linker[N-extein]-Gp41.1^N(C1A)-GGHHHHHH fusion protein (protein)
chain: MASWSHPQFEKASKETFTHYQPQGNSDPAHTATAPGGLSAKAPAMTPLMLDTSSRKLVAWDGTTDGAAVGILAVAADQTSTTLTFYKSGTFRYEDVLWPEAASDETKKRTAFAGTAISIVGSTRSGYALDLKTQVQTPQGMKEISNIQVGDLVLSNTGYNEVLNVFPKSKKKSYKITLEDGKEIICSEEHLFPTQTGEMNISGGLKEGMCLYVKEGGHHHHHH
